Data taken from patent US20250304662A1 (published 2025).
Where a chain is given by its changes, count along the chain named.

B1: 2G04 (antibody, V domains shown)
VH: EVQLQQPGPELVKPGSSLKISCKASGYTFTDYFINWVKQRPGQGLDWIGWIFPGSGSTYYNDKFKGKATLTVDKSSSTAYMLLSSLTSEASAVYFCARWDSDSTYWYFDVWGTGTTVTVSS
VL: QIVLTQSPALMAASPGEKVTITCSVNSSISSSTLHWYQQKSQTSPKPWIYGTSNLASGVPIRFSGSGSGTSYSLTISSMEAEDAATYYCQQWSTYPYTFGGGTKLEIKR
B2: Kp1 2E02 (antibody, V domains shown)
VH: EVQLQQSGPVLVKPGPSVKISCKASGFTFTDYYIHWVKRSHGKSLEWIGLVSPYNGGTFYNQKFKGKATLTVDTSSNTAYMELTSLTSEDSAVYYCARLGVNWYFDVWGTGTTVTVSS
VL: B1 VL with I21L, N26S, Q42E, I61V
B3: Ec1 F7 (antibody, V domains shown)
VH: EVQLQQPGPVLVKPGPSVKISCKASGFTFTDYFIHWVKQSHGKSLEWIGLVSPYNGGTYYNQQFKGKATLTVDTSSSTAYMDLNSLTSEDSAVYYCTRLLRGYWYFDVWGTGTTVTVSS
VL: B1 VL with N26S, S30G, T33N, Q42E, I61V
B4: Kp 2E08 (antibody, V domains shown)
VH: EVQLQQPGAELAKPGASVKLSCKASGYNFTSYWMHWVKQRPGQGLEWIGLIHPNSGGTYYNEKFKSKATLTLDRSSSTAYMQLSSLTSEDSAVYYCARFEEEWGGYWYFDVWGTGTTVTVSS
VL: B1 VL with N26S, T33N, Q42E, I61V, T94S
B5: Kp 1C01 (antibody, V domains shown)
VH: EVQLQQPGPVLVKPGPSVKISCKASGFTFTDYYMHWVKQSHGKSLEWIGLVSPYNGGTFYNQKFKGKATLTVDTSSSTAYMELNSLTSEDSAVYYCARVGNSYVHYAMDYWGQGTSVTVSS
VL: B1 VL with N26S, T33N, Q42E, I61V, T94N
B6: Kp 2G02 (antibody, V domains shown)
VH: EVQLQQSGPVLVKPGPSVKISCKASGFTFTDYYMHWVKQSHGKSLEWIGLVYPYNGGTYYNQKFKGKATLTVDTSSSTAYMELNSLTSEDSAVYYCVRLGNGSSNEWYFDVWGTGTTVTVSS
VL: B1 VL with N26S, S32Y, T33N, Q42E, I61V, S93R, Y97W
B7: Ec A2 (antibody, V domains shown)
VH: EVQLQQSGAEQVRPGASVKMSCKASGYTFTTYNMNWMKQTPGQGLEWIGVIYPGNGDISYNQKFKGKATLTVDKSSSTAYMQLSSLTSEDSAVYFCAREGDYGPWFAYWGQGTLVTVSA
VL: QIVLTQSPAIMSASPGEKVTMTCRASSSVSSSYLHWYQQKSGASPKFWIYSTSKLASGVPARFSGSGSGTSYSLTISSVEAEDAATYYCQHYSRYPLTFGGGTKLEIKR
B8: Ec3 B7 (antibody, V domains shown)
VH: EVQLQQPGAELVRPGASVKMSCKASGYTFTIYNLHWVKQTPRQGLEWIGTIYPGDGDTSYNQKFKGKATLTVDKSSSTAYMQLSNLTSEDSAVYFCAREGDYGPWFAYWGQGTLVTVSA
VL: B7 VL with F47L, T52S, K54N, S77N, S93G, R94S
B9: Kp 1B02 (antibody, V domains shown)
VH: EVQLQQSGAELVRPGSSVKMSCKTSGYTFTFYGINWVKQRPGQGLEWIGYIYVGNGYSEYNEKFKVKATLTSDTSSSTAYMQLSGLTSEDSAIYFCARSDGYNYFDYWGQGTTLTVSS
VL: QIVLTQSPAILSASPGEKVTMTCRASSSLHYMHWYQQKTGSSPKPWIYATSNLASGVPARFSGSGSGTSYSLTISRVEAEDTATYYCQQWSSNPPTFGAGTKLELKR
B10: Kp 1D09 (antibody, V domains shown)
VH: EVQLQQPGAELVKPGASVKLSCKASGYTFTNYWIHWMKQRPGRGLEWIGRIEPNSGDTKYNEKIKSRATLTVDKPSSTAYMQLSSLTSEDSAVYYCARSGYDYPEAWGQGTTLTVSS
VL: DIVLTQSPASLAVSPGQRATISCRASEGVEYYGTTLMQWYQQKPGQPPKLLIYAASNVESGVPARFSGSGSGTDFSLNIHPVEEDDIAMYFCQQSRKVSWTFGGGTKLEIKR
B11: Kp 2B06 (antibody, V domains shown)
VH: EVQLQQPGAELVKPGASVKLSCKASGYTFTNYWMHWVKHRPGRGLEWIGRIDPNSGGTKYNEKFKNKATLTVDNPSSTGYMQLSSLTSEDSAVYYCTRSGYDYPDYWGQGTTLTVSS
VL: B10 VL with P15L, G28S, T35S, L50V, E59D, A64P, I79F, S99P
B12: Kp2 2C07 (antibody, V domains shown)
VH: EVKLVESGEGLVKPGGSLKLSCAASGFTFSSYAMSWVRQTPEKRLDWVAYISSGGDHIYYADTVKGRFTISRDNARNTLYLQMSSLKSEDTAMYYCTRDTGYYVSRYFDVWGTGTTVTVSS
VL: DIVMTQSQKFMSTSVGDRVSVTCKASQNVVTNVAWYQQKSGQSPKVVIYSASFRSSGVPDRFTGSGSGTDFTLTISNVQSEDLAEYFCHQYNSHPLTFGGGTKLEIKR
B13: Kp 2C09 (antibody, V domains shown)
VH: B12 VH with K3M, G10D, A23I, D46E, H57Y, A61T, Y80F
VL: B12 VL with V30G, S40P, V46A, V47L, S55N, S93N, H94Y
B14: Kp 2D07 (antibody, V domains shown)
VH: EVQLQQSGPELVRPGASVKISCKASGYTFTDYYIHWLKQRPGQGLEWIGLIFPGSGSIYCNEKFKGKATLTVDKSSTTAYMLLSSLTSEDSAVYFCARWETTAWYFDVWGTGTTVTVSS
VL: QIVLTQSPAILSASPGEKVTMTCRASLSVSYMHWYQQKPGSSPKPWIYATSNLASGVPARFSGSGSGTSYSLTVSRVEAEDAATYYCQQWRSYPYTFGGGTKLEIKR
B15: Kp 1A09 (antibody, V domains shown)
VH: EVQLQQPGAELVKPGASVKLSCKASGYTFTSYWMHWVKQRPGQGLEWIGLIHPNSGSTYYNEKFKNKATLTVDKSSSTAYMQLSSLTSEDSAVYYCARWDDSYWYFKVWGTGTTVTVSS
VL: B14 VL with L27S, V74I, R91S, Y93N
B16: Kp 2D04 (antibody, V domains shown)
VH: B9 VH with S7P, A9G, S58T
VL: B9 VL with S12T, L29V, T39P, Q88H, L105I
B17: Ec E7 (antibody, V domains shown)
VH: EVQLQQSGAELVKPGASVKVSCKASGYSFTNYWVHWVKQRPGQGLEWIGRIYSSDGDSNYNQKFKGKATLTVDKSSSTAYMQLSSLTSEDSAVYYCAIEGNLYFDYWGQGTTLTVSS
VL: DIVLTQSPASLAVSLGQRATISCRASQSVSTSSYSYMHWYQQKPGQPPKFLIKYASNLESGVPARFSGSGSGTDFTLNIHPVEEEDTATYYCQHSWEIPLTFGAGTKLKLKR
B18: Ec F11 (antibody, V domains shown)
VH: QVQLKESGPGLVAPSQSLSITCTVSGFSLTNYAISWVRQPPGKGLEWLGIIWTGGGTLYNSALKSRPSISKDNSKSQVFLKMNSLQTDDTARYYCARAYYSNYDWYFDVWDTGTTVTVSS
VL: DIQMTQSPSSLSASLGDRVTISCSASQGISNYLNWYQQKPDGTVKLLIYYTSSLHSGVPSRFSGSGSGTDYSLTISNLEPEDIATYYCQQYSQVPYTFGGGTKLEIKR
B19: Ec C12 (antibody, V domains shown)
VH: B18 VH with E6Q, P67L
VL: B18 VL
B20: Kp 1B07 (antibody, V domains shown)
VH: EVQLQQPGAELVKPGTSVKLSCKASGYTFTSYWMHWVKQRPGQGLEWIGMIHPNSGSTNYNEMFESKASLTVDKSSSTAYMQLSSLTSEDSAVYYCARIGYSGWGQGTSVTVSS
VL: DIVMTQSPSSLSVSAGEKVTMSCKSSQSLLNGGNQKNYLAWYQQKPGQPPKVLINGASTRESGVPDRFTGNGSGTDFTLTISSVQAEDLAVYYCQNDHTYPLTFGAGTKLELKR
B21: Kp 1E04 (antibody, V domains shown)
VH: EVQLQQSGAELVKPGASVKLSCKASGYTFTSYWVHWVRQRPGQGLEWIGMIHPNSGSTNYNEKFKSKATLTVDKSSSTAYMQLSSLTSEDSAVYYCASYYYGSSYYFDYWGQGTTLTVSS
VL: B20 VL with S12T, S14T, G32S, A40T, V52L, N55Y, G56W, N71S, H98Y, T99S

The binders below were run against Ec FimHLD (assay: ELISA).

| Binder | EC50 [µg/mL] |
| --- | --- |
| B1 | 0.0115 |
| B2 | 0.0127 |
| B3 | 0.0109 |
| B4 | 0.0092 |
| B5 | 0.0146 |
| B6 | 0.015 |
| B7 | 0.0131 |
| B8 | 0.0241 |
| B9 | 0.024 |
| B10 | 0.0227 |
| B11 | 0.0092 |
| B12 | 0.013 |
| B13 | 0.0129 |
| B14 | 0.0129 |
| B15 | 0.0135 |
| B16 | 0.0121 |
| B17 | 0.0266 |
| B18 | 0.0273 |
| B19 | 0.0122 |

Target: T1, Kp FimHLD
T1 chain: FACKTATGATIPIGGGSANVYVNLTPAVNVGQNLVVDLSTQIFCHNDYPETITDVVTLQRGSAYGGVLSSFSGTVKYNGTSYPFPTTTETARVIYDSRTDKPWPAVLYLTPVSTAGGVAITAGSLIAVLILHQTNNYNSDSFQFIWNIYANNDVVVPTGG
Assay: ELISA

| Binder | EC50 [µg/mL] |
| --- | --- |
| B1 | 0.0081 |
| B2 | 0.0127 |
| B3 | 0.0078 |
| B4 | 0.0149 |
| B5 | 0.0125 |
| B6 | 0.0105 |
| B7 | 0.0141 |
| B8 | 0.0391 |
| B9 | 0.0166 |
| B10 | 0.0383 |
| B11 | 0.0169 |
| B12 | 0.0186 |
| B13 | 0.0101 |
| B14 | 0.0144 |
| B15 | 0.0161 |
| B16 | 0.0119 |
| B20 | 0.0148 |
| B21 | 0.731 |
| B18 | 0.752 |

Target: T2, Ec FmlHLD
T2 chain: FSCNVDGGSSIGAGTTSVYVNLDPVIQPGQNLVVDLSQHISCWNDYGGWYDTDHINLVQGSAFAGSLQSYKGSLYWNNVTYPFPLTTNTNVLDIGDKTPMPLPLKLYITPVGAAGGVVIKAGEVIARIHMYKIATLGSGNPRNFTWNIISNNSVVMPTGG
Assay: ELISA

| Binder | EC50 [µg/mL] |
| --- | --- |
| B1 | 2.89 |
| B2 | 0.0097 |
| B3 | 0.0083 |
| B5 | 0.886 |
| B6 | 0.0144 |
| B14 | 0.0178 |
| B15 | 0.018 |
